# Reference: publication PMC4353338, “Molecular annotation of ketol-acid reductoisomerases from Streptomyces reveals a novel amino acid biosynthesis interlock mediated by enzyme promiscuity” (Microbial Biotechnology, 2014)
# Tests used:
# Test in all cases: purified protein
# Conditions in all cases: 0.1 M Tris-HCl pH 8, 10 mM MgCl2, 0.22 mM NADP(H), 25 C
# purified protein [1] = substrate: CC(C)(O)C(=O)C(=O)O; format: biochemical, Corynebacterium glutamicum
# purified protein [2] = substrate: CC(C)(O)C(=O)C(=O)O; format: biochemical, Streptomyces pristinaespiralis
# purified protein [3] = substrate: CC(=O)[C@](C)(O)C(=O)O; format: biochemical, Streptomyces pristinaespiralis
# purified protein [4] = substrate: CC[C@](O)(C(C)=O)C(=O)O; format: biochemical, Streptomyces avermitilis
# purified protein [5] = substrate: CC(=O)[C@](C)(O)C(=O)O; format: biochemical, Streptomyces avermitilis
# purified protein [6] = substrate: CC(C)(O)C(=O)C(=O)O; format: biochemical, Streptomyces coelicolor
# purified protein [7] = substrate: CC(=O)[C@](C)(O)C(=O)O; format: biochemical, Streptomyces coelicolor
# purified protein [8] = substrate: CC(C)(O)C(=O)C(=O)O; format: biochemical, Streptomyces lividans
# purified protein [9] = substrate: CC(=O)[C@](C)(O)C(=O)O; format: biochemical, Streptomyces lividans
# purified protein [10] = substrate: CC(C)(O)C(=O)C(=O)O; format: biochemical, Streptomyces ambofaciens
# purified protein [11] = substrate: CC(=O)[C@](C)(O)C(=O)O; format: biochemical, Streptomyces ambofaciens
# purified protein [12] = substrate: CC(C)(O)C(=O)C(=O)O; format: biochemical, Streptomyces viridifaciens
# purified protein [13] = substrate: CC(=O)[C@](C)(O)C(=O)O; format: biochemical, Streptomyces viridifaciens
# purified protein [14] = substrate: CC[C@](O)(C(C)=O)C(=O)O; format: biochemical, Streptomyces griseus
# purified protein [15] = substrate: CC(=O)[C@](C)(O)C(=O)O; format: biochemical, Streptomyces griseus
# purified protein [16] = substrate: CC(C)(O)C(=O)C(=O)O; format: biochemical, Escherichia coli
protein,measurement,setting,value
"Cgl (Corynebacterium glutamicum ATCC 13032) (protein, pET28a, expressed in E. coli BL21 Star (DE3), Ni-NTA purified (His-tagged)) MAIELLYDADADLSLIQGRKVAIVGYGSQGHAHSQNLRDSGVEVVIGLREGSKSAEKAKEAGFEVKTTAEAAAWADVIMLLAPDTSQAEIFTNDIEPNLNAGDALLFGHGLNIHFDLIKPADDIIVGMVAPKGPGHLVRRQFVDGKGVPCLIAVDQDPTGTAQALTLSYAAAIGGARAGVIPTTFEAETVTDLFGEQAVLCGGTEELVKVGFEVLTEAGYEPEMAYFEVLHELKLIVDLMFEGGISNMNYSVSDTAEFGGYLSGPRVIDADTKSRMKDILTDIQDGTFTKRLIANVENGNTELEGLRASYNNHPIEETGAKLRDLMSWVKVDARAETA",Km,purified protein [1],2300 ± 250 µM
same,kcat,purified protein [1],0.9 ± 0.08 s⁻¹
"Spr (Streptomyces pristinaespiralis ATCC 25486) (protein, pET28a, expressed in E. coli BL21 Star (DE3), Ni-NTA purified (His-tagged)) MAELFYDDDADLSIIQNRKVAVIGYGSQGHAHALSLRDSGVDVRVGLHEGSKSKAKAEEQGLRVVTPAEAAAEADVIMILIPDPIQAQVYEESVKGNLKDGDALFFAHGFNVRFGFIKAPAGVDVALVAPKGPGHLVRRQYEEGRGVPAIAAVEQDATGNAFALALSYAKAIGGTRAGVIKTTFTEETETDLFGEQAVLCGGASALVKAGFETLTEAGYQPEIAYFECLHELKLIVDLMYEGGLEKMRWSVSETAEWGDYITGPRIITDQTKAEMKKVLAEIQDGTFAKNWMDEYHGGLKKYDEYKTQDSEHLLETTGKELRKLMSWVDNDEA",Km,purified protein [2],8600 ± 900 µM
same,kcat,purified protein [2],5.2 ± 0.6 s⁻¹
same,Km,purified protein [3],9000 ± 700 µM
same,kcat,purified protein [3],3.6 ± 0.3 s⁻¹
"Sav (Streptomyces avermitilis MA-4680 = NBRC 14893) (protein, pET28a, expressed in E. coli BL21 Star (DE3), Ni-NTA purified (His-tagged)) MAELFYDADADLSIIQGRKVAVIGYGSQGHAHALSLRDSGVDVRVGLHEGSKSKAKAEEQGLRVVTPSEAAAEADVIMILVPDPIQAQVYEESIKDNLKDGDALFFGHGLNIRFGFIKPPAGVDVCMVAPKGPGHLVRRQYEEGRGVPCIAAVEQDATGNGFALALSYAKGIGGTRAGVIKTTFTEETETDLFGEQAVLCGGTAALVKAGFETLTEAGYQPEIAYFECLHELKLIVDLMYEGGLEKMRWSISETAEWGDYVTGPRIITDATKAEMKKVLAEIQDGTFAQAWMDEYHGGLKKYNEYKTQDENHLLETTGKELRKLMSWVNDEEA",Km,purified protein [4],2600 ± 300 µM
same,kcat,purified protein [4],0.4 ± 0.04 s⁻¹
same,Km,purified protein [5],800 ± 90 µM
same,kcat,purified protein [5],0.24 ± 0.2 s⁻¹
"Sco1 (Streptomyces coelicolor A3(2)) (protein, pET28a, expressed in E. coli BL21 Star (DE3), Ni-NTA purified (His-tagged)) MAELFYDADADLSIIQGRKVAVIGYGSQGHAHALSLRDSGVDVRVGLHEGSKSKAKAEEQGLRVVPVAEAAAEADVIMILVPDPIQAEVYEKDIKDNLKDGDALFFGHGLNIRYGFIKPPAGVDVCMVAPKGPGHLVRRQYEEGRGVPCIAAVEQDATGNAFALALSYAKGIGGTRAGVIKTTFTEETETDLFGEQAVLCGGTAALVKAGFETLTEAGYQPEIAYFECLHELKLIVDLMYEGGLEKMRWSISETAEWGDYVTGPRIITDATKAEMKKVLAEIQDGTFAKNWMDEYHGGLKKYNEYKKQDSEHLLETTGKELRKLMSWVDEEA",Km,purified protein [6],3000 ± 200 µM
same,kcat,purified protein [6],2.2 ± 0.15 s⁻¹
same,Km,purified protein [7],1600 ± 200 µM
same,kcat,purified protein [7],1.1 ± 0.2 s⁻¹
"Sli1 (Streptomyces lividans TK24) (protein, pET28a, expressed in E. coli BL21 Star (DE3), Ni-NTA purified (His-tagged)) MAELFYDADADLSIIQGRKVAVIGYGSQGHAHALSLRDSGVDVRVGLHEGSKSKAKAEEQGLRVVPVAEAAAEADVIMILVPDPIQAEVYEKDIKDNLKDGDALFFGHGLNIRYGFIKPPAGVDVCMVAPKGPGHLVRRQYEEGRGVPCIAAVEQDATGNAFALALSYAKGIGGTRAGVIKTTFTEETETDLFGEQAVLCGGTAALVKAGFETLTEAGYQPEIAYFECLHELKLIVDLMYEGGLEKMRWSISETAEWGDYVTGPRIITDATKAEMKKVLAEIQDGTFAKNWMDEYHGGLKKYNEYKKQDSEHLLETTGKELRKLMSWVDEEA",Km,purified protein [8],4000 ± 500 µM
same,kcat,purified protein [8],2.8 ± 0.3 s⁻¹
same,Km,purified protein [9],1200 ± 70 µM
same,kcat,purified protein [9],0.7 ± 0.59 s⁻¹
"Sco2 (Streptomyces coelicolor A3(2)) (protein, pET28a, expressed in E. coli BL21 Star (DE3), Ni-NTA purified (His-tagged)) MAELFYDADADLSIIQGRKVAVIGYGSQGHAHALSLRDSGVDVRVGLHEGSKSKAKAEEQGLRVVPVAEAAAEADVIMILVPDPIQAEVYEKDIKDNLKDGDALFFGHGLNIRYGFVKPPAGVDVCMVAPKGPGHLVRRQYEEGRGVPCLVAVEQDATGNAFALALSYAKGIGGTRAGVIRTTFTEETETDLFGEQAVLAGGVTALVKAGFETLTEAGYQPEIAYFECLHELKLIVDLMYEGGLEKMRWSISETAEWGDYVTGPRIITDVTKAEMRKVLAEIQDGTFAKNWMDEYHGGLKKYNEYKKQDSEHLLETTGKELRKLMSWVDEEA",Km,purified protein [6],10000 ± 110 µM
same,kcat,purified protein [6],0.3 ± 0.04 s⁻¹
same,Km,purified protein [7],12000 ± 800 µM
same,kcat,purified protein [7],0.24 ± 0.01 s⁻¹
"Sam (Streptomyces ambofaciens) (protein, pET28a, expressed in E. coli BL21 Star (DE3), Ni-NTA purified (His-tagged)) MAELFYDADADLSIIQGRKVAVIGYGSQGHAHALSLRDSGVDVRVGLHEGSKSKAKAEEQGLRVVSPSEAAAEADVIMILVPDPIQAQVYEEHIKDNLKDGDALFFGHGLNIRFGFIKPPAGVDVCMVAPKGPGHLVRRQYEEGRGVPCIAAVEQDASGNAFALALSYAKGIGGTRAGVIKTTFTEETETDLFGEQAVLCGGTAALVKAGFETLTEAGYQPEIAYFECLHELKLIVDLMYEGGLEKMRWSISETAEWGDYVTGPRIITDATKAEMKKVLAEIQDGTFAKNWMDEYHGGLKKYNEYKQQDSEHLLETTGKQLRKLMSWVDEEA",Km,purified protein [10],4000 ± 300 µM
same,kcat,purified protein [10],0.8 ± 0.1 s⁻¹
same,Km,purified protein [11],2000 ± 150 µM
same,kcat,purified protein [11],0.63 ± 0.5 s⁻¹
"Svi2 (Streptomyces viridifaciens) (protein, commercially synthesized gene; pET28a, expressed in E. coli BL21 Star (DE3), Ni-NTA purified (His-tagged)) MAELFYDADADLSIIQGRKVAVIGYGSQGHAHALSLRDSGVDVRVGLHEGSKSKAKAEEQGLRVVTPAEAAAEADVIMILVPDPIQAQVYEESVKDNLKDGDALFFGHGFNIRFGFIKPPAGVDVCMVAPKGPGHLVRRQYEEGRGVPCIAAVEQDASGNAFALALSYAKGIGGTRAGVIKTTFTEETETDLFGEQAVLCGGTSALVKAGFETLVEAGYQPEIAYFECLHELKLIVDLMYEGGLEKMRWSVSETAEWGDYVTGPRIITDATKAEMKKVLAEIQDGTFAKNWMDEYHGGLKKYDDYKEQDSEHLLETTGKQLRKLMSWVNEETM",Km,purified protein [12],5000 ± 4800 µM
same,kcat,purified protein [12],2.5 ± 0.3 s⁻¹
same,Km,purified protein [13],1800 ± 900 µM
same,kcat,purified protein [13],2 ± 0.07 s⁻¹
"Sgr (Streptomyces griseus subsp. griseus NBRC 13350) (protein, pET28a, expressed in E. coli BL21 Star (DE3), Ni-NTA purified (His-tagged)) MAELFYDDDADLSIIQGRKVAVLGYGSQGHAHALSLRDSGVDVRVGLHEGSKSKAKAEEQGLRVVTPSEAAAEADVIMILVPDPIQAQVYEESVKDNLKDGDALFFGHGLNIRFGFIKPPAGVDVCMVAPKGPGHLVRRQYEEGRGVPCIVAVEQDASGKGLELALSYAKGIGGTRAGVIKTTFTEETETDLFGEQAVLCGGTAALVKAGFETLTEAGYQPEIAYFECLHELKLIVDLMYEGGLEKMRWSISETAEWGDYVTGPRIITDATKAEMKKVLAEIQDGTFAKNWMAEYHNGLPKYNEYKKADSDHLLETTGRELRKLMSWVNDEEA",Km,purified protein [14],2500 ± 300 µM
same,kcat,purified protein [14],0.44 ± 0.03 s⁻¹
same,Km,purified protein [15],1200 ± 700 µM
same,kcat,purified protein [15],0.42 ± 0.04 s⁻¹
"Eco (Escherichia coli K-12) (protein, pET28a, expressed in E. coli BL21 Star (DE3), Ni-NTA purified (His-tagged)) ANYFNTLNLRQQLAQLGKCRFMGRDEFADGASYLQGKKVVIVGCGAQGLNQGLNMRDSGLDISYALRKEAIAEKRASWRKATENGFKVGTYEELIPQADLVINLTPDKQHSDVVRTVQPLMKDGAALGYSHGFNIVEVGEQIRKDITVVMVAPKCPGTEVREEYKRGFGVPTLIAVHPENDPKGEGMAIAKAWAAATGGHRAGVLESSFVAEVKSDLMGEQTILCGMLQAGSLLCFDKLVEEGTDPAYAEKLIQFGWETITEALKQGGITLMMDRLSNPAKLRAYALSEQLKEIMAPLFQKHMDDIISGEFSSGMMADWANDDKKLLTWREETGKTAFETAPQYEGKIGEQEYFDKGVLMIAMVKAGVELAFETMVDSGIIEESAYYESLHELPLIANTIARKRLYEMNVVISDTAEYGNYLFSYACVPLLKPFMAELQPGDLGKAIPEGAVDNGQLRDVNEAIRSHAIEQVGKKLRGYMTDMKRIAVAG",Km,purified protein [16],260 ± 30 µM
same,kcat,purified protein [16],3.1 ± 0.25 s⁻¹
